The record followed here is ChEMBL document CHEMBL3856203, “β-Lactamases: Why and How” (J Med Chem, 2016).

Substrate in the series: CC(C)(O/N=C(\C(=O)N[C@@H]1C(=O)N2C(C(=O)[O-])=C(C[n+]3ccccc3)CS[C@H]12)c1csc(N)n1)C(=O)O
Briefly: Substrate activity at Enterobacter cloacae beta lactamase P99 expressed in Escherichia coli AS226-51 cells by UV spectrophotometric method.

B1: Beta-lactamase (Enterobacter cloacae), P05364 (protein)
chain: MMRKSLCCALLLGISCSALATPVSEKQLAEVVANTITPLMKAQSVPGMAVAVIYQGKPHYYTFGKADIAANKPVTPQTLFELGSISKTFTGVLGGDAIARGEISLDDAVTRYWPQLTGKQWQGIRMLDLATYTAGGLPLQVPDEVTDNASLLRFYQNWQPQWKPGTTRLYANASIGLFGALAVKPSGMPYEQAMTTRVLKPLKLDHTWINVPKAEEAHYAWGYRDGKAVRVSPGMLDAQAYGVKTNVQDMANWVMANMAPENVADASLKQGIALAQSRYWRIGSMYQGLGWEMLNWPVEANTVVEGSDSKVALAPLPVAEVNPPAPPVKASWVHKTGSTGGFGSYVAFIPEKQIGIVMLANTSYPNPARVEAAYHILEALQ
As to B1, the kcat is 7 ×10⁻³ /s.
